For one substance, Km, Ki and Vmax results are on record in paper PMC9104438, “Application of a Fluorescence Anisotropy-Based Assay to Quantify Transglutaminase 2 Activity in Cell Lysates” (International Journal of Molecular Sciences, 2022).

Series [1] has as its target T1, hTGase 3 (Homo sapiens, UniProt Q08188).
T1 sequence (Q08188 2-467 limits assumed): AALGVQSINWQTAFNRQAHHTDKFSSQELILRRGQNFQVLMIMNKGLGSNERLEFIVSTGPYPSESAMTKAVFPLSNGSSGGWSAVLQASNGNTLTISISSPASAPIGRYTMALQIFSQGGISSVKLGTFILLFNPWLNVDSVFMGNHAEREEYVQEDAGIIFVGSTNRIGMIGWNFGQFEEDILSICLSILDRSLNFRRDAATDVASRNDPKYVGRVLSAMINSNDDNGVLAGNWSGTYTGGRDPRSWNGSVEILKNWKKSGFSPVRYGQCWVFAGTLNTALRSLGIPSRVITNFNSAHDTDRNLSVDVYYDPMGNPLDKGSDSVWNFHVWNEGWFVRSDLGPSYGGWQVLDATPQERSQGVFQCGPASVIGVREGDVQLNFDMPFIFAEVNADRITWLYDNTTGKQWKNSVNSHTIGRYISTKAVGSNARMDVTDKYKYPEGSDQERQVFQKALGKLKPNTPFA
T1 sequence (Q08188 468-693 partner limits assumed): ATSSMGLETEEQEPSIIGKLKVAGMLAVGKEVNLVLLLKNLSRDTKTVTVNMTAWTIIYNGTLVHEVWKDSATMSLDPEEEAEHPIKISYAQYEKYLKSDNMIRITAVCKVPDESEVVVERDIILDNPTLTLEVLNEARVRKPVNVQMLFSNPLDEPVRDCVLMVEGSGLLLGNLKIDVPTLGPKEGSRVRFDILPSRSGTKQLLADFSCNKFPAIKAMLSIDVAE
In words: FA-based assay, kinetic characterization of acyl donor DMC with R-I-Cad. Format: biochemical. On the set-up: purchased Zedira T013. Conditions: hTGase 3 5 µg/mL, R-I-Cad 0.74 µM, mean (SEM). On the procedure:
(§1) For the kinetic characterization of DMC (Figure 1B) in the presence of a fixed concentration of R-I-Cad (0.74 µM), eight different concentrations of DMC (0.3–300 µM) were used (2–3 separate experiments, each performed in duplicate). The corresponding stock solutions of DMC and R-I-Cad were prepared in assay buffer A and DMSO, respectively. […] Values for Km, Ki and Vmax were calculated according to the equation of substrate inhibition (Equation (2)). (2) v=Vmax∗[S]/Km+[S]∗(1+[S]/Ki)

Series [2] deals with T2, hFXIIIa (Homo sapiens, UniProt P00488).
T2 sequence (P00488 39-732 limits assumed): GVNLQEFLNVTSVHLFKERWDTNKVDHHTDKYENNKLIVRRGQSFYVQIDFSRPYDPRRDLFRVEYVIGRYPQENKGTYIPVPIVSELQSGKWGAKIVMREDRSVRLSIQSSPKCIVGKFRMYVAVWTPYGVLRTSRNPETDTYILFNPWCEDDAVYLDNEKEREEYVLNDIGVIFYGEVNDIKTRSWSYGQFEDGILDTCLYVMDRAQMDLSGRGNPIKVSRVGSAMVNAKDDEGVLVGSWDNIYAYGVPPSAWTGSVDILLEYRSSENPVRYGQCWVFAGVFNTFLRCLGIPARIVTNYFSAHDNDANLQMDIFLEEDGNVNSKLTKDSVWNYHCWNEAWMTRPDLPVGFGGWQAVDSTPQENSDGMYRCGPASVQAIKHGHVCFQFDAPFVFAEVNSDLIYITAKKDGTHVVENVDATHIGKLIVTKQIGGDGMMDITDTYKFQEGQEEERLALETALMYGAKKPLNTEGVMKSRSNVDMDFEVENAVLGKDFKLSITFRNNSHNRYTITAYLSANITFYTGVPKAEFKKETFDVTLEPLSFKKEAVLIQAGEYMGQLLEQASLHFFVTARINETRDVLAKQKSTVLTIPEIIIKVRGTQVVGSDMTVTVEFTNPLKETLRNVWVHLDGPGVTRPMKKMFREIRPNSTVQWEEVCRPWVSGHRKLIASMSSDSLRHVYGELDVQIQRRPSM
Described as above. Format: biochemical. On the set-up: purchased Zedira T070. Conditions: hFXIIIa 5 µg/mL, R-I-Cad 0.74 µM, mean (SEM). The method, then: as §1

Setting [3] is: read-out: Ki (substrate inhibition).

For orientation: Km means the concentration of substrate that gives half-maximal velocity. Take N,N-dimethylated casein [DMC]: the Michaelis-Menten constant (Km) in series [1] worked out at 6.29 µM; in series [2], 17.5 µM. Also, the Ki in series [1] (setting [3]) is 571 µM; in series [2] (setting [3]), 135 µM. For the same substance, the Vmax in series [1] (pH 8.0, 30 °C) was 5.80 (0.09) mA mL s^−1 mg^−1; in series [2] (pH 8.0, 30 °C) it was 16.0 (1.1) mA mL s^−1 mg^−1.
